This experiment deals with modified CypA (S99T, F113G, C115M) (CypAgtm), overexpressed in E. coli and purified (UniProt P62937). Description: direct fluorescence binding assay, purified CypAgtm.

In the case of “alpha-cyclopentyl, sarcosine11-CsA (CpSar11-CsA) (peptide)”, the dissociation constant Kd (in general, the constant that tells how readily two partners part at equilibrium) amounted to 9 nM.

For the origin of these results see patent US6982082.
